Laboratory results published in paper PMC2614139.

Target: GCaMP2 (original protein with the N-terminal hexahistidine tag and RSET module) (not stated | Aequorea victoria)
Assay: AUC

## GCaMP2 (original protein with the N-terminal hexahistidine tag and RSET module)
  stoichiometry N: 2
